{"source": "paper PMC2422856", "biological_target": "CapAB(K55M), inactive P-loop mutant of the CapAB chimeric protein, unphosphorylated (Staphylococcus aureus)", "assay": "crystal structure; CapAB(K55M) at 8.5 mg/ml with 10 mM MgCl2, 20% (v/v) PEG 1000, 200 mM glycine, 0.1 M Na-Hepes pH 7.5, 18 °C; 2.6 Å", "data": [{"substance": "CapAB(K55M), inactive P-loop mutant of the CapAB chimeric protein, unphosphorylated", "values": [{"measurement": "stoichiometry N", "result": 8}]}]}
